Measurements from PMC4801485 (Biochemistry, 2015).
Entries after “also recorded” stand apart in the source; their conditions may differ. Where no end group is shown, it is not given here.

Legend:
CypA [1] = molecular target: T1, CypA (Homo sapiens, UniProt P62937); test: 15N TROSY CPMG-RD of ligand-saturated CypA; format: biochemical
CypA [2] = molecular target: T1, CypA; details: percent weaker than GSFGPDLRAGD; cited from earlier work
CypA [3] = molecular target: T1, CypA; details: cited from earlier work
[4] = 2H,15N CypA, saturating TA-peptide (6 mM), 10 °C

T1 sequence (P62937 whole entry): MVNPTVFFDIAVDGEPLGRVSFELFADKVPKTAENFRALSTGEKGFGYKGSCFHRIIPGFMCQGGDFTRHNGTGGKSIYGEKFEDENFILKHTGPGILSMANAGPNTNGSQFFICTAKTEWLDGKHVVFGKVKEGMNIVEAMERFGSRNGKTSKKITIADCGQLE

Substance	exchange throughout most of the active site (CsA) (CypA [1]; 2H,15N CypA (0.5 mM), CsA 0.7 mM, 10 °C)	chemical exchange rate throughout most of the active site (CypA [1]; [4])	rate of motions, loop residues ~65–78 and ~108–110 (CypA [1]; [4])	active site dynamics as compared to CypA:peptide complex (CypA [1]; 2H,15N CypA, saturating TA-peptide, much of the active site)	binding relative to the standard GSFGPDLRAGD peptide (weaker) (CypA [2])	isomerization by CypA (CypA [3])
cyclosporine A [CsA, reference compound]	quenched by CsA throughout most of the active site; also recorded: completely quenched	–	–	–	–	–
TA-peptide: substrate for which the G-P peptide bond in the peptide is replaced by a thioamide bond (GSFGPDLRAGD; also: G-P peptide bond replaced by thioamide bond)	–	~ 300 s^−1	~ 2000 s^−1	slowed dramatically	~ 50%	not isomerized by CypA
